# Laboratory results: publication PMC13388985 (Nature Communications, 2026)
# No end group written: not given here.
# T1: GST-tagged wild-type Af1521 macrodomain (UniProt O28751 1-192)
# T1 sequence: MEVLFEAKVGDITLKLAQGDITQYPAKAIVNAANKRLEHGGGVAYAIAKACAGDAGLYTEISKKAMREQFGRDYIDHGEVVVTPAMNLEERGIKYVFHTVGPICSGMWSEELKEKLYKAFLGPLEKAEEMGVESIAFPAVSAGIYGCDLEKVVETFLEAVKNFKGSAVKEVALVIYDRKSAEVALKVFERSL
# T2: GST-tagged Af1521-K35E/Y145R macrodomain (UniProt O28751 1-192, K35E | Y145R)
# T2 sequence: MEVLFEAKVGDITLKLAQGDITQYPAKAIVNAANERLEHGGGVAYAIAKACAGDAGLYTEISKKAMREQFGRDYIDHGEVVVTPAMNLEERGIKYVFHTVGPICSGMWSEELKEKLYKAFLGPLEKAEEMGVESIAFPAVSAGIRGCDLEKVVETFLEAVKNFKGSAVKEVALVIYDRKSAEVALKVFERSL
# Legend:
# [1] = biological target: T1, GST-tagged wild-type Af1521 macrodomain; assay: pull-down
# [2] = biological target: T2, GST-tagged Af1521-K35E/Y145R macrodomain; assay: pull-down
binding result [1],binding result [2],Binder
binds,binds,GWTAR(ADP‑ribose)KSAEAGTAGK-NH2 [Synthetic peptide GWTARKSAEAGTAGK-amide with ADPr on Arg-5]
binds,binds,GWTARKS(ADP‑ribose)AAAGTAGK-NH2 [Synthetic peptide GWTARKSAAAGTAGK-amide with ADPr on Ser-7]
